{"source": "patent US20150376264A1", "about": "(CALIFORNIA INSTITUTE FOR BIOMEDICAL RESEARCH, published 2015)", "binders": {"B1": {"name": "BLV1H12 hLeptin fusion protein (antibody, human IgG1)", "heavy": "not shown", "light": "QAVLNQPSSVSGSLGQRVSITCSGSSSNVGNGYVSWYQLIPGSAPRTLIYGDTSRASGVPDRFSGSRSGNTATLTISSLQAEDEADYFCASAEDSSSNAVFGSGTTLTVLGQPKSPPSVTLFPPSTEELNGNKATLVCLISDFYPGSVTVVWKADGSTITRNVETTRASKQSNSKYAASSYLSLTSSDWKSKGSYSCEVTHEGSTVTKTVKPSECS"}}, "target": "Leptin receptor", "assay": "cell-based or functional assay"}
{"binder": "B1", "values": [{"measurement": "EC50 (Baf3-LepR cell proliferation, AlamarBlue)", "result": 0.0575, "unit": "nM"}]}
